Source: patent publication US20110190200A1 (INDIANA UNIVERSITY RESEARCH AND TECHNOLOGY, published 2011)
Read-outs that look alike come from different tables or passages of the source. Numbered stars: 1 amine (or outer) side, 2 acyl side, 3 side chain; on linkers, the order of the positions; unused ones are H or OH. Square brackets hold non-standard residues; d marks the D form. Side chains are listed from the residue outwards. Ends that are not written are not given here. * marks the point of attachment. γGlu = O=C(O)[C@H](CCC(=O)[*:2])N[*:1]; Palmitoyl = CCCCCCCCCCCCCCCC(=O)*; Myristoyl = CCCCCCCCCCCCCC(=O)*; Dab = NCC[C@H](N)C(=O)O; Aib = CC(C)(N)C(=O)O; Ahx = NCCCCCC(=O)O

How the values were obtained:
Assay in all cases: cell-based or functional assay
[1] = biological target: T1, glucagon receptor (human, UniProt P47871 26-477)
[2] = biological target: T2, GLP-1 receptor (UniProt P43220 24-463, limits assumed)
[3] = biological target: T1, glucagon receptor; remark: listed apart in the source
[4] = biological target: T2, GLP-1 receptor; remark: listed apart in the source
Target sequence in this assay (P43220 24-463 limits assumed): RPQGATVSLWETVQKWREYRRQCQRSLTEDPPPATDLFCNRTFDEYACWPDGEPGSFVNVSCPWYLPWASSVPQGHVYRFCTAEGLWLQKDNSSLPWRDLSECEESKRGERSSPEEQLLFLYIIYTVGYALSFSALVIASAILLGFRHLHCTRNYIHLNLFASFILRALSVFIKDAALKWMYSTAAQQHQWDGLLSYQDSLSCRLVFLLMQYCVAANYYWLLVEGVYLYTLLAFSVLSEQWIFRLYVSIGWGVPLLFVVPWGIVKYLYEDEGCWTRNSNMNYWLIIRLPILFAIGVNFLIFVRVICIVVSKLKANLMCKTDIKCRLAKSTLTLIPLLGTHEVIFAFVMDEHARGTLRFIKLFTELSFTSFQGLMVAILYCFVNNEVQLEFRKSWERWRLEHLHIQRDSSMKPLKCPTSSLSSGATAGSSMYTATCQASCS

[5] = biological target: T1, glucagon receptor; remark: listed apart in the source
[6] = biological target: T2, GLP-1 receptor; remark: listed apart in the source

T1 sequence (P47871 26-477): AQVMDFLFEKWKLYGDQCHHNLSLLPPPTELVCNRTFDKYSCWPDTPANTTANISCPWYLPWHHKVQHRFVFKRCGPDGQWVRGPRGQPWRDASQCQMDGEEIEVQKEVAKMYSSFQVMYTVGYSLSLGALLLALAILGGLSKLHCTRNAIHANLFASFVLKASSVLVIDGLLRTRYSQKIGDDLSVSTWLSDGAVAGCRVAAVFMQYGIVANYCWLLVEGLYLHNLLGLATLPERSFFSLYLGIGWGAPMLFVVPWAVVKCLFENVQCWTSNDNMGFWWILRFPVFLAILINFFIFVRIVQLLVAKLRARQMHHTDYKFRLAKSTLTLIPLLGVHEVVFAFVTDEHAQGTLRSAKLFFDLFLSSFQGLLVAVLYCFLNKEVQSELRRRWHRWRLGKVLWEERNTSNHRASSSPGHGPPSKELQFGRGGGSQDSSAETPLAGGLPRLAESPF

| Binder | EC50 at GLP-1 Receptor [2] [nM] | EC50 at Glucagon Receptor [3] [nM] | also measured |
| --- | --- | --- | --- |
| HS[Dab](Ac)GTFTSDYSKYLD[Aib]RRAADFVAWLLDTGPSSGAPPPS-NH2 (N-terminus assumed; SMILES CC(=O)NCC[C@H](NC(=O)[C@H](CO)NC(=O)[C@@H](N)Cc1c[nH]cn1)C(=O)NCC(=O)N[C@H](C(=O)N[C@@H](Cc1ccccc1)C(=O)N[C@H](C(=O)N[C@@H](CO)C(=O)N[C@@H](CC(=O)O)C(=O)N[C@@H](Cc1ccc(O)cc1)C(=O)N[C@@H](CO)C(=O)N[C@@H](CCCCN)C(=O)N[C@@H](Cc1ccc(O)cc1)C(=O)N[C@@H](CC(C)C)C(=O)N[C@@H](CC(=O)O)C(=O)NC(C)(C)C(=O)N[C@@H](CCCNC(=N)N)C(=O)N[C@@H](CCCNC(=N)N)C(=O)N[C@@H](C)C(=O)N[C@@H](C)C(=O)N[C@@H](CC(=O)O)C(=O)N[C@@H](Cc1ccccc1)C(=O)N[C@H](C(=O)N[C@@H](C)C(=O)N[C@@H](Cc1c[nH]c2ccccc12)C(=O)N[C@@H](CC(C)C)C(=O)N[C@@H](CC(C)C)C(=O)N[C@@H](CC(=O)O)C(=O)N[C@H](C(=O)NCC(=O)N1CCC[C@H]1C(=O)N[C@@H](CO)C(=O)N[C@@H](CO)C(=O)NCC(=O)N[C@@H](C)C(=O)N1CCC[C@H]1C(=O)N1CCC[C@H]1C(=O)N1CCC[C@H]1C(=O)N[C@@H](CO)C(N)=O)[C@@H](C)O)C(C)C)[C@@H](C)O)[C@@H](C)O) [HSDab(Ac)…ibRRAADFVAWLLDTGPSSGAPPPS amide] | – | – | % activity* [1]: 113%; EC50 (nM) at Glucagon Receptor [1]: 0.023 nM |
| H[Aib]QGTFTSDK([Ala-Ala-Myristoyl])SKYLD[Aib]RRAQDFVC(PEG 40 kDa)WLMNT-NH2 [Peptide 81* (Table 10)] | 0.271 | 0.597 | – |
| H[Aib]QGTFTSDK(C18 fatty acyl)SKYLDEQAAKEFIC(PEG 40 kDa)WLMNT-NH2 [Peptide Chimera 2-AIB2-K10-acylated] | – | – | EC50 at the GLP-1 receptor [4]: 0.007 nM |
| HSQGTFTSDYSKYLDSRRAQDFVQWLMNKK [glucagon analog K29, K30] | – | – | Observed EC50s (nM) in Cells Overexpressing the Glucagon Receptor, Test 1 [5]: 0.89 nM |
| H[Aib]QGTFTSDK([Ala-Ala-Palmitoyl])SKYLD[Aib]RRAQDFVQWLMNT-NH2 [Peptide 82 (Table 10)] | 0.108 | 0.024 | – |
| H[Aib]QGTFTSDK([Ala-Ala-Myristoyl])SKYLD[Aib]RRAQDFVCWLMNT-NH2 (N-terminus assumed; SMILES CCCCCCCCCCCCCC(=O)N[C@@H](C)C(=O)N[C@@H](C)C(=O)NCCCC[C@H](NC(=O)[C@H](CC(=O)O)NC(=O)[C@H](CO)NC(=O)[C@@H](NC(=O)[C@H](Cc1ccccc1)NC(=O)[C@@H](NC(=O)CNC(=O)[C@H](CCC(N)=O)NC(=O)C(C)(C)NC(=O)[C@@H](N)Cc1c[nH]cn1)[C@@H](C)O)[C@@H](C)O)C(=O)N[C@@H](CO)C(=O)N[C@@H](CCCCN)C(=O)N[C@@H](Cc1ccc(O)cc1)C(=O)N[C@@H](CC(C)C)C(=O)N[C@@H](CC(=O)O)C(=O)NC(C)(C)C(=O)N[C@@H](CCCNC(=N)N)C(=O)N[C@@H](CCCNC(=N)N)C(=O)N[C@@H](C)C(=O)N[C@@H](CCC(N)=O)C(=O)N[C@@H](CC(=O)O)C(=O)N[C@@H](Cc1ccccc1)C(=O)N[C@H](C(=O)N[C@@H](CS)C(=O)N[C@@H](Cc1c[nH]c2ccccc12)C(=O)N[C@@H](CC(C)C)C(=O)N[C@@H](CCSC)C(=O)N[C@@H](CC(N)=O)C(=O)N[C@H](C(N)=O)[C@@H](C)O)C(C)C) [Peptide 81** (Table 11)] | – | – | EC50 at GLP-1 Receptor [6]: 0.018 nM |
| HXQGTFTSDYSKYLDEQAAKEFICWLMNTK (AIB at position 2; Lys at position 30 acylated with a C18 fatty acyl group; Cys at position 24 comprises a 40 kDa PEG molecule; C-terminal amide) [Peptide Chimera 2-AIB2-K30-acylated] | – | – | EC50 at the GLP-1 receptor [4]: 0.465 nM |
| HS[Dab](Ac)GTFTSDYSKYLD[Aib]RRATDFVTWLLDE [HSDab(Ac)…ibRRATDFVTWLLDE] | – | – | % activity* [1]: 46%; EC50 (nM) at Glucagon Receptor [1]: 0.057 nM |
| H[Aib]QGTFTSDK(Myristoyl)SKYLD[Aib]RRAQDFVC(PEG 40 kDa)WLMNT-NH2 [Peptide 77* (Table 10)] | 1.46 | 21.9 | – |
| H[Aib]QGTFTSDK([Ala-Ala-Palmitoyl])SKYLD[Aib]RRAQDFVC(PEG 40 kDa)WLMNT-NH2 [Peptide 79* (Table 10)] | 0.055 | 0.102 | – |
| H[Aib]QGTFTSDK([γGlu-γGlu-Palmitoyl])SKYLD[Aib]RRAQDFVC(PEG 40 kDa)WLMNT-NH2 [Peptide 80* (Table 10)] | 0.042 | 0.108 | – |
| HSQGTFTSDYSKYLDSRRAQDFVQWLMNTE [glucagon analog E30] | – | – | Observed EC50s (nM) in Cells Overexpressing the Glucagon Receptor, Test 2 [5]: 0.04 nM |
| HSQGTFTSDYSKYLDSRRAQDFVQWLMDTE [glucagon analog D28, E30] | – | – | Observed EC50s (nM) in Cells Overexpressing the Glucagon Receptor, Test 3 [5]: 0.05 nM |
| H[Aib]QGTFTSDK([Leu-Leu-Palmitoyl])SKYLD[Aib]RRAQDFVQWLMNT-NH2 (N-terminus assumed; SMILES CCCCCCCCCCCCCCCC(=O)N[C@@H](CC(C)C)C(=O)N[C@@H](CC(C)C)C(=O)NCCCC[C@H](NC(=O)[C@H](CC(=O)O)NC(=O)[C@H](CO)NC(=O)[C@@H](NC(=O)[C@H](Cc1ccccc1)NC(=O)[C@@H](NC(=O)CNC(=O)[C@H](CCC(N)=O)NC(=O)C(C)(C)NC(=O)[C@@H](N)Cc1c[nH]cn1)[C@@H](C)O)[C@@H](C)O)C(=O)N[C@@H](CO)C(=O)N[C@@H](CCCCN)C(=O)N[C@@H](Cc1ccc(O)cc1)C(=O)N[C@@H](CC(C)C)C(=O)N[C@@H](CC(=O)O)C(=O)NC(C)(C)C(=O)N[C@@H](CCCNC(=N)N)C(=O)N[C@@H](CCCNC(=N)N)C(=O)N[C@@H](C)C(=O)N[C@@H](CCC(N)=O)C(=O)N[C@@H](CC(=O)O)C(=O)N[C@@H](Cc1ccccc1)C(=O)N[C@H](C(=O)N[C@@H](CCC(N)=O)C(=O)N[C@@H](Cc1c[nH]c2ccccc12)C(=O)N[C@@H](CC(C)C)C(=O)N[C@@H](CCSC)C(=O)N[C@@H](CC(N)=O)C(=O)N[C@H](C(N)=O)[C@@H](C)O)C(C)C) [Peptide 86 (Table 10)] | 0.006 | – | – |
| HSQGTFTSDYSKYLDSRRAQDFVQWLMNTKK [glucagon analog K30, K31] | – | – | Observed EC50s (nM) in Cells Overexpressing the Glucagon Receptor, Test 2 [5]: 0.12 nM |
| H[Aib]QGTFTSDK([γGlu-γGlu-Myristoyl])SKYLD[Aib]RRAQDFVC(PEG 40 kDa)WLMNT-NH2 [Peptide 78* (Table 10)] | 0.103 | 0.319 | – |
| H[Aib]QGTFTSDK([Pro-Pro-Palmitoyl])SKYLD[Aib]RRAQDFVQWLMNT-NH2 [Peptide 87 (Table 10)] | 0.009 | 0.017 | – |
| HS[Dab](Ac)GTFTSDYSKYLD[Aib]RRASDFVSWLLDE [HSDab(Ac)…ibRRASDFVSWLLDE] | – | – | % activity* [1]: 54%; EC50 (nM) at Glucagon Receptor [1]: 0.048 nM |
| HSQGTFTSDYSKYLESRRAQDFVQWLMDT [glucagon analog D28, E15] | – | – | Observed EC50s (nM) in Cells Overexpressing the Glucagon Receptor, Test 3 [5]: 0.15 nM |
| H[Aib]QGTFTSDK([Ahx-Palmitoyl])SKYLD[Aib]RRAQDFVQWLMNT-NH2 (N-terminus assumed; SMILES CCCCCCCCCCCCCCCC(=O)NCCCCCC(=O)NCCCC[C@H](NC(=O)[C@H](CC(=O)O)NC(=O)[C@H](CO)NC(=O)[C@@H](NC(=O)[C@H](Cc1ccccc1)NC(=O)[C@@H](NC(=O)CNC(=O)[C@H](CCC(N)=O)NC(=O)C(C)(C)NC(=O)[C@@H](N)Cc1c[nH]cn1)[C@@H](C)O)[C@@H](C)O)C(=O)N[C@@H](CO)C(=O)N[C@@H](CCCCN)C(=O)N[C@@H](Cc1ccc(O)cc1)C(=O)N[C@@H](CC(C)C)C(=O)N[C@@H](CC(=O)O)C(=O)NC(C)(C)C(=O)N[C@@H](CCCNC(=N)N)C(=O)N[C@@H](CCCNC(=N)N)C(=O)N[C@@H](C)C(=O)N[C@@H](CCC(N)=O)C(=O)N[C@@H](CC(=O)O)C(=O)N[C@@H](Cc1ccccc1)C(=O)N[C@H](C(=O)N[C@@H](CCC(N)=O)C(=O)N[C@@H](Cc1c[nH]c2ccccc12)C(=O)N[C@@H](CC(C)C)C(=O)N[C@@H](CCSC)C(=O)N[C@@H](CC(N)=O)C(=O)N[C@H](C(N)=O)[C@@H](C)O)C(C)C) [Peptide 85 (Table 10)] | 0.005 | 0.01 | – |
| H[Aib]QGTFTSDK(Palmitoyl)SKYLD[Aib]RRAQDFVQWLMNT-NH2 [Peptide 50 (Table 10)] | – | 0.572 | – |
